Like-named read-outs stand apart in the source and are kept apart here.
Key:
Test in all cases: cryo-EM structure
[1] = target: major capsid protein gp23* (cleaved form of gp23) of bacteriophage T4 (bacteriophage T4)
cryo-EM structure [2] = target: the molecule itself
cryo-EM structure [3] = target: the molecule itself; remark: listed apart in the source

major capsid protein gp23* (cleaved form of gp23) of bacteriophage T4 (natural protein)
stoichiometry N [1]: 6

B1: Soc (small outer capsid protein) of bacteriophage T4 (natural protein, UniProt P03715 1-80, looked up)
chain: MASTRGYVNIKTFEQKLDGNKKIEGKEISVAFPLYSDVHKISGAHYQTFPSEKAAYSTVYEENQRTEWIAANEDLWKVTG
stoichiometry N (cryo-EM structure [2]): 3

B2: vertex protein gp24* (cleaved form of gp24) of bacteriophage T4 (natural protein, UniProt P19896 11-427, looked up)
chain: STTTNSNSIGRPNLVALTRATTKLIYSDIVATQRTNQPVAAFYGIKYLNPDNEFTFKTGATYAGEAGYVDREQITELTEESKLTLNKGDLFKYNNIVYKVLEDTPFATIEESDLELALQIAIVLLKVRLFSDAASTSKFESSDSEIADARFQINKWQTAVKSRKLKTGITVELAQDLEANGFDAPNFLEDLLATEMADEINKDILQSLITVSKRYKVTGITDSGFIDLSYASAPEAGRSLYRMVCEMVSHIQKESTYTATFCVASARAAAILAASGWLKHKPEDDKYLSQNAYGFLANGLPLYCDTNSPLDYVIVGVVENIGEKEIVGSIFYAPYTEGLDLDDPEHVGAFKVVVDPESLQPSIGLLVRYALSANPYTVAKDEKEARIIDGGDMDKMAGRSDLSVLLGVKLPKIIIDE
stoichiometry N (cryo-EM structure [3]): 5
